Reference: patent US20140363428A1 (Chugai, published 2014)
Positions count from the first letter of the chain named.

B1: Fv-4-F1232 (antibody)
heavy: QVQLQESGPGLVKPSETLSLTCAVSGHSISHDHAWSWVRQPPGEGLEWIGFISYSGITNYNPSLQGRVTISRDNSKNTLYLQMNSLRAEDTAVYYCARSLARTTAMDYWGEGTLVTVSSASTKGPSVFPLAPSSKSTSGGTAALGCLVKDYFPEPVTVSWNSGALTSGVHTFPAVLQSSGLYSLSSVVTVPSSSLGTQTYICNVNHKPSNTKVDKKVEPKSCDKTHTCPPCPAPELLGGPSVFLFPPKPKDTLYISRTPEVTCVVVDVSHEDPEVKFNWYVDGVEVHNAKTKPREEQYNSTYRVVSVLTVLHQDWLNGKEYKCKVSNKALPAPIEKTISKAKGQPREPQVYTLPPSRDELTKNQVSLTCLVKGFYPSDIAVEWESNGQPENNYKTTPPVLDSDGSFFLYSKLTVDKSRWQQGNVFSCSVMHEALHYHVTKKDLSLSP
light: DIQMTQSPSSLSASVGDSVTITCQASTDISSHLNWYQQKPGKAPELLIYYGSHLLSGVPSRFSGSGSGTDFTFTISSLEAEDAATYYCGQGNRLPYTFGQGTKVEIERTVAAPSVFIFPPSDEQLKSGTASVVCLLNNFYPREAKVQWKVDNALQSGNSQESVTEQDSKDSTYSLSSTLTLSKADYEKHKVYACEVTHQGLSSPVTKSFNRGEC
B2: Fv-4-F1107 (antibody, human IgG1, kappa)
heavy: B1 heavy with V424D, K440Q, D442S
light: B1 light
B3: Fv-4-F1112 (antibody, human IgG1, kappa)
heavy: B1 heavy with D442S
light: B1 light
B4: Fv-4-F1106 (antibody)
heavy: B1 heavy with K440R, D442E
light: B1 light
B5: Fv-4-F1122 (antibody, human IgG1, kappa)
heavy: B1 heavy with T252V, T309Q, V310P, Q313A, K440R, D442S
light: B1 light
B6: Fv-4-F1231 (antibody)
heavy: B1 heavy with D442E
light: B1 light
B7: Fv-4-F1123 (antibody)
heavy: B1 heavy with T252V, T309Q, V310P, Q313A, K440Q, D442E
light: B1 light
B8: Fv-4-F1104 (antibody, human IgG1, kappa)
heavy: B1 heavy with V424E, S426R, K440Q, D442S
light: B1 light
B9: Fv-4-F1120 (antibody, human IgG1, kappa)
heavy: B1 heavy with T252V, T309Q, V310P, Q313A, S426R, K440Q, D442S
light: B1 light
B10: Fv-4-F1105 (antibody, human IgG1, kappa)
heavy: B1 heavy with V424S, S426R, K440Q, D442S
light: B1 light
B11: Fv-4-F1073 (antibody)
heavy: B1 heavy with K440Q, D442R
light: B1 light
B12: Fv-4-F1124 (antibody)
heavy: B1 heavy with T252V, T309Q, V310P, Q313A, K440R, D442E
light: B1 light
B13: Fv-4-F1121 (antibody, human IgG1, kappa)
heavy: B1 heavy with T252V, T309Q, V310P, Q313A, V424E, S426R, K440Q, D442S
light: B1 light
B14: Fv-4-F1108 (antibody, human IgG1, kappa)
heavy: B1 heavy with V424K, K440Q, D442S
light: B1 light
B15: Fv-4-F1109 (antibody, human IgG1, kappa)
heavy: B1 heavy with V424T, K440Q, D442S
light: B1 light
B16: Fv-4-F1114 (antibody)
heavy: B1 heavy with K440Q, D442Q
light: B1 light
B17: Fv-4-F1230 (antibody)
heavy: B1 heavy with K440R
light: B1 light
B18: Fv-4-F1110 (antibody, human IgG1, kappa)
heavy: B1 heavy with V424Q, K440Q, D442S
light: B1 light
B19: Fv-4-F1119 (antibody, human IgG1, kappa)
heavy: B1 heavy with T252V, T309Q, V310P, Q313A, V424E, K440Q, D442S
light: B1 light
B20: Fv-4-F1113 (antibody)
heavy: B1 heavy with K440Q
light: B1 light
B21: Fv-4-F1111 (antibody, human IgG1, kappa)
heavy: B1 heavy with S426K, K440Q, D442S
light: B1 light
B22: F1670 (antibody)
heavy: B1 heavy with L237R, S241K, Y254M, K440R, D442E
light: B1 light
B23: F1724 (antibody)
heavy: B1 heavy with Y254M, H435D, D442E
light: B1 light
B24: F1758 (antibody)
heavy: B1 heavy with Y254M, V438T, D442E
light: B1 light
B25: F1757 (antibody)
heavy: B1 heavy with Y254M, V438T, K440R
light: B1 light
B26: F1754 (antibody)
heavy: B1 heavy with L237R, S241K, Y254M, H435D, V438T, D442E
light: B1 light
B27: F1712 (antibody)
heavy: B1 heavy with L237R, S241K, Y254M, D442E
light: B1 light
B28: F1723 (antibody)
heavy: B1 heavy with Y254M, H435D, K440R
light: B1 light
B29: F1756 (antibody)
heavy: B1 heavy with Y254M, V438T, K440R, D442E
light: B1 light
B30: F1715 (antibody)
heavy: B1 heavy with L237R, S241K, Y254M, H435D, K440R
light: B1 light
B31: F1750 (antibody)
heavy: B1 heavy with L237R, S241K, Y254M, V438T, D442E
light: B1 light
B32: F1725 (antibody)
heavy: B1 heavy with Y254M, H435D
light: B1 light
B33: F1753 (antibody)
heavy: B1 heavy with L237R, S241K, Y254M, H435D, V438T, K440R
light: B1 light
B34: F1681 (antibody)
heavy: B1 heavy with L237R, S241K, Y254M, V438T, K440R, D442E
light: B1 light
B35: F1749 (antibody)
heavy: B1 heavy with L237R, S241K, Y254M, V438T, K440R
light: B1 light
B36: F1675 (antibody)
heavy: B1 heavy with L237R, S241K, Y254M, H435D, K440Q, D442S
light: B1 light
B37: F1719 (antibody)
heavy: B1 heavy with Y254M, K440R
light: B1 light
B38: F1714 (antibody)
heavy: B1 heavy with L237R, S241K, Y254M, H435D, K440R, D442E
light: B1 light
B39: F1752 (antibody)
heavy: B1 heavy with L237R, S241K, Y254M, H435D, V438T, K440R, D442E
light: B1 light
B40: F1751 (antibody)
heavy: B1 heavy with L237R, S241K, Y254M, V438T
light: B1 light
B41: F1716 (antibody)
heavy: B1 heavy with L237R, S241K, Y254M, H435D, D442E
light: B1 light
B42: F1683 (antibody)
heavy: B1 heavy with L237R, S241K, Y254M, V438F, K440R, D442E
light: B1 light
B43: F1718 (antibody)
heavy: B1 heavy with Y254M, K440R, D442E
light: B1 light
notes: S440F as printed
B44: F1759 (antibody)
heavy: B1 heavy with Y254M, V438T
light: B1 light
B45: F1720 (antibody)
heavy: B1 heavy with Y254M, D442E
light: B1 light

Target: T1, soluble human FcRn (human, UniProt P55899 24-297; P61769 21-119)
T1 construct: Heterodimer of alpha chain and beta2-microglobulin; also called hFcRn
Experiment: SPR (Biacore), pH 7.0

Kd [nM] | Binder
97.9 | B1
120 | B2
120 | B3
140 | B4
14 | B5
97.3 | B6
9.5 | B7
180 | B8
10 | B9
150 | B10
134 | B11
12 | B12
10 | B13
130 | B14
130 | B15
130 | B16
112 | B17
130 | B18
10 | B19
120 | B20
160 | B21

Target: T1, soluble human FcRn
Experiment: SPR (Biacore), pH 6.0

Kd [nM] | Binder
64 | B22
99 | B23
70 | B24
72 | B25
120 | B26
55 | B27
96 | B28
80 | B29
110 | B30
70 | B31
93 | B32
130 | B33
84 | B34
87 | B35
97 | B36
52 | B37
110 | B38
150 | B39
69 | B40
96 | B41
57 | B42
61 | B43
63 | B44
45 | B45
